# Data reported in article PMC11574045, “A cofactor-induced repressive type of transcription factor condensation can be induced by synthetic peptides to suppress tumorigenesis” (The EMBO Journal, 2024).
# Test system: HEK293FT cells transfected with TF library
# Assay: Screening of TF condensates based on fluorescent puncta
# Format: cell-based
# Details: Figure 1B numerical data; TF library screen, one value per transcriptional factor
# How it was run: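 TF plasmids (final 1.6 μg/ml) reverse-transfected with PEI (4.8 μg/ml) into HEK293FT cells; after 60 h, cells cultured ±glucose for 12 h, fixed in 4% PFA and immunostained for Flag or GAL4 tags with Alexa 488 secondaries. Puncta scored by automated imaging of 50 random fields per well.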
row,Molecule,Z score of condensed fraction
1,"ZBTB5 (protein, UniProt O15062 1-677, looked up) Zinc finger and BTB …: MDFPGHFEQIFQQLNYQRLHGQLCDCVIVVGNRHFKAHRSVLAACSTHFRALFSVAEGDQTMNMIQLDSEVVTAEAFAALIDMMYTSTLMLGESNVMDVLLAASHLHLNSVVKACKHYLTTRTLPMSPPSERVQEQSARMQRSFMLQQLGLSIVSSALNSSQNGEEQPAPMSSSMRSNLDQRTPFPMRRLHKRKQSAEERARQRLRPSIDESAISDVTPENGPSGVHSREEFFSPDSLKIVDNPKADGMTDNQEDSAIMFDQSFGTQEDAQVPSQSDNSAGNMAQLSMASRATQVETSFDQEAAPEKSSFQCENPEVGLGEKEHMRVVVKSEPLSSPEPQDEVSDVTSQAEGSESVEVEGVVVSAEKIDLSPESSDRSFSDPQSSTDRVGDIHILEVTNNLEHKSTFSISNFLNKSRGNNFTANQNNDDNIPNTTSDCRLESEAPYLLSPEAGPAGGPSSAPGSHVENPFSEPADSHFVRPMQEVMGLPCVQTSGYQGGEQFGMDFSRSGLGLHSSFSRVMIGSPRGGASNFPYYRRIAPKMPVVTSVRSSQIPENSTSSQLMMNGATSSFENGHPSQPGPPQLTRASADVLSKCKKALSEHNVLVVEGARKYACKICCKTFLTLTDCKKHIRVHTGEKPYACLKCGKRFSQSSHLYKHSKTTCLRWQSSNLPSTLL",-0.7904
2,"ZFAT (protein, UniProt Q9P243 1-1243, looked up) Zinc finger protein ZFAT: METRAAENTAIFMCKCCNLFSPNQSELLSHVSEKHMEEGVNVDEIIIPLRPLSTPEPPNSSKTGDEFLVMKRKRGRPKGSTKKSSTEEELAENIVSPTEDSPLAPEEGNSLPPSSLECSKCCRKFSNTRQLRKHICIIVLNLGEEEGEAGNESDLELEKKCKEDDREKASKRPRSQKTEKVQKISGKEARQLSGAKKPIISVVLTAHEAIPGATKIVPVEAGPPETGATNSETTSADLVPRRGYQEYAIQQTPYEQPMKSSRLGPTQLKIFTCEYCNKVFKFKHSLQAHLRIHTNEKPYKCPQCSYASAIKANLNVHLRKHTGEKFACDYCSFTCLSKGHLKVHIERVHKKIKQHCRFCKKKYSDVKNLIKHIRDAHDPQDKKVKEALDELCLMTREGKRQLLYDCHICERKFKNELDRDRHMLVHGDKWPFACELCGHGATKYQALELHVRKHPFVYVCAVCRKKFVSSIRLRTHIKEVHGAAQEALVFTSSINQSFCLLEPGGDIQQEALGDQLQLVEEEFALQGVNALKEEACPGDTQLEEGRKEPEAPGEMPAPAVHLASPQAESTALPPCELETTVVSSSDLHSQEVVSDDFLLKNDTSSAEAHAAPEKPPDMQHRSSVQTQGEVITLLLSKAQSAGSDQESHGAQSPLGEGQNMAVLSAGDPDPSRCLRSNPAEASDLLPPVAGGGDTITHQPDSCKAAPEHRSGITAFMKVLNSLQKKQMNTSLCERIRKVYGDLECEYCGKLFWYQVHFDMHVRTHTREHLYYCSQCHYSSITKNCLKRHVIQKHSNILLKCPTDGCDYSTPDKYKLQAHLKVHTALDKRSYSCPVCEKSFSEDRLIKSHIKTNHPEVSMSTISEVLGRRVQLKGLIGKRAMKCPYCDFYFMKNGSDLQRHIWAHEGVKPFKCSLCEYATRSKSNLKAHMNRHSTEKTHLCDMCGKKFKSKGTLKSHKLLHTADGKQFKCTVCDYTAAQKPQLLRHMEQHVSFKPFRCAHCHYSCNISGSLKRHYNRKHPNEEYANVGTGELAAEVLIQQGGLKCPVCSFVYGTKWEFNRHLKNKHGLKVVEIDGDPKWETATEAPEEPSTQYLHITEAEEDVQGTQAAVAALQDLRYTSESGDRLDPTAVNILQQIIELGAETHDATALASVVAMAPGTVTVVKQVTEEEPSSNHTVMIQETVQQASVELAEQHHLVVSSDDVEGIETVTVYTQGGEASEFIVYVQEAMQPVEEQAVEQPAQEL",-0.7456
3,"ZDHHC18 (protein, UniProt Q9NUE0 1-388, looked up) Palmitoyltransferase ZDHHC18: MKDCEYQQISPGAAPLPASPGARRPGPAASPTPGPGPAPPAAPAPPRWSSSGSGSGSGSGSLGRRPRRKWEVFPGRNRFYCGGRLMLAGHGGVFALTLLLILTTTGLFFVFDCPYLARKLTLAIPIIAAILFFFVMSCLLQTSFTDPGILPRATVCEAAALEKQIDNTGSSTYRPPPRTREVLINGQMVKLKYCFTCKMFRPPRTSHCSVCDNCVERFDHHCPWVGNCVGRRNYRFFYAFILSLSFLTAFIFACVVTHLTLRAQGSNFLSTLKETPASVLELVICFFSIWSILGLSGFHTYLVASNLTTNEDIKGSWSSKRGGEASVNPYSHKSIITNCCAVLCGPLPPSLIDRRGFVQSDTVLPSPIRSDEPACRAKPDASMVGGHP",-0.2463
4,"ZEB2 (protein, UniProt O60315 1-1214, looked up) Zinc finger E-box-binding …: MKQPIMADGPRCKRRKQANPRRKNVVNYDNVVDTGSETDEEDKLHIAEDDGIANPLDQETSPASVPNHESSPHVSQALLPREEEEDEIREGGVEHPWHNNEILQASVDGPEEMKEDYDTMGPEATIQTAINNGTVKNANCTSDFEEYFAKRKLEERDGHAVSIEEYLQRSDTAIIYPEAPEELSRLGTPEANGQEENDLPPGTPDAFAQLLTCPYCDRGYKRLTSLKEHIKYRHEKNEENFSCPLCSYTFAYRTQLERHMVTHKPGTDQHQMLTQGAGNRKFKCTECGKAFKYKHHLKEHLRIHSGEKPYECPNCKKRFSHSGSYSSHISSKKCIGLISVNGRMRNNIKTGSSPNSVSSSPTNSAITQLRNKLENGKPLSMSEQTGLLKIKTEPLDFNDYKVLMATHGFSGTSPFMNGGLGATSPLGVHPSAQSPMQHLGVGMEAPLLGFPTMNSNLSEVQKVLQIVDNTVSRQKMDCKAEEISKLKGYHMKDPCSQPEEQGVTSPNIPPVGLPVVSHNGATKSIIDYTLEKVNEAKACLQSLTTDSRRQISNIKKEKLRTLIDLVTDDKMIENHNISTPFSCQFCKESFPGPIPLHQHERYLCKMNEEIKAVLQPHENIVPNKAGVFVDNKALLLSSVLSEKGMTSPINPYKDHMSVLKAYYAMNMEPNSDELLKISIAVGLPQEFVKEWFEQRKVYQYSNSRSPSLERSSKPLAPNSNPPTKDSLLPRSPVKPMDSITSPSIAELHNSVTNCDPPLRLTKPSHFTNIKPVEKLDHSRSNTPSPLNLSSTSSKNSHSSSYTPNSFSSEELQAEPLDLSLPKQMKEPKSIIATKNKTKASSISLDHNSVSSSSENSDEPLNLTFIKKEFSNSNNLDNKSTNPVFSMNPFSAKPLYTALPPQSAFPPATFMPPVQTSIPGLRPYPGLDQMSFLPHMAYTYPTGAATFADMQQRRKYQRKQGFQGELLDGAQDYMSGLDDMTDSDSCLSRKKIKKTESGMYACDLCDKTFQKSSSLLRHKYEHTGKRPHQCQICKKAFKHKHHLIEHSRLHSGEKPYQCDKCGKRFSHSGSYSQHMNHRYSYCKREAEEREAAEREAREKGHLEPTELLMNRAYLQSITPQGYSDSEERESMPRDGESEKEHEKEGEDGYGKLGRQDGDEEFEEEEEESENKSMDTDPETIRDEEETGDHSMDDSSEDGKMETKSDHEEDNMEDGM",-0.2398
5,"ZFP144 (protein, UniProt P35227 1-344, looked up) Polycomb group RING finger …: MHRTTRIKITELNPHLMCALCGGYFIDATTIVECLHSFCKTCIVRYLETNKYCPMCDVQVHKTRPLLSIRSDKTLQDIVYKLVPGLFKDEMKRRRDFYAAYPLTEVPNGSNEDRGEVLEQEKGALSDDEIVSLSIEFYEGARDRDEKKGPLENGDGDKEKTGVRFLRCPAAMTVMHLAKFLRNKMDVPSKYKVEVLYEDEPLKEYYTLMDIAYIYPWRRNGPLPLKYRVQPACKRLTLATVPTPSEGTNTSGASECESVSDKAPSPATLPATSSSLPSPATPSHGSPSSHGPPATHPTSPTPPSTASGATTAANGGSLNCLQTPSSTSRGRKMTVNGAPVPPLT",0.0768
6,"C1QBP (protein, UniProt Q07021 74-282, looked up) Complement component 1 Q …: LHTDGDKAFVDFLSDEIKEERKIQKHKTLPKMSGGWELELNGTEAKLVRKVAGEKITVTFNINNSIPPTFDGEEEPSQGQKVEEQEPELTSTPNFVVEVIKNDDGKKALVLDCHYPEDEVGQEDEAESDIFSIREVSFQSTGESEWKDTNYTLNTDSLDWALYDHLMDFLADRGVDNTFADELVELSTALEHQEYITFLEDLKSFVKSQ",2.537
7,"ZFP296 (protein, UniProt Q8WUU4 1-475, looked up) Zinc finger protein 296: MSRRKAGSAPRRVEPAPAANPDDEMEMQDLVIELKPEPDAQPQQAPRLGPFSPKEVSSAGRFGGEPHHSPGPMPAGAALLALGPRNPWTLWTPLTPNYPDRQPWTDKHPDLLTCGRCLQTFPLEAITAFMDHKKLGCQLFRGPSRGQGSEREELKALSCLRCGKQFTVAWKLLRHAQWDHGLSIYQTESEAPEAPLLGLAEVAAAVSAVVGPAAEAKSPRASGSGLTRRSPTCPVCKKTLSSFSNLKVHMRSHTGERPYACDQCPYACAQSSKLNRHKKTHRQVPPQSPLMADTSQEQASAAPPEPAVHAAAPTSTLPCSGGEGAGAAATAGVQEPGAPGSGAQAGPGGDTWGAITTEQRTDPANSQKASPKKMPKSGGKSRGPGGSCEFCGKHFTNSSNLTVHRRSHTGERPYTCEFCNYACAQSSKLNRHRRMHGMTPGSTRFECPHCHVPFGLRATLDKHLRQKHPEAAGEA",0.8818
8,"CALCOCO1 (protein, UniProt Q9P1Z2 1-691, looked up) Calcium-binding and …: MEESPLSRAPSRGGVNFLNVARTYIPNTKVECHYTLPPGTMPSASDWIGIFKVEAACVRDYHTFVWSSVPESTTDGSPIHTSVQFQASYLPKPGAQLYQFRYVNRQGQVCGQSPPFQFREPRPMDELVTLEEADGGSDILLVVPKATVLQNQLDESQQERNDLMQLKLQLEGQVTELRSRVQELERALATARQEHTELMEQYKGISRSHGEITEERDILSRQQGDHVARILELEDDIQTISEKVLTKEVELDRLRDTVKALTREQEKLLGQLKEVQADKEQSEAELQVAQQENHHLNLDLKEAKSWQEEQSAQAQRLKDKVAQMKDTLGQAQQRVAELEPLKEQLRGAQELAASSQQKATLLGEELASAAAARDRTIAELHRSRLEVAEVNGRLAELGLHLKEEKCQWSKERAGLLQSVEAEKDKILKLSAEILRLEKAVQEERTQNQVFKTELAREKDSSLVQLSESKRELTELRSALRVLQKEKEQLQEEKQELLEYMRKLEARLEKVADEKWNEDATTEDEEAAVGLSCPAALTDSEDESPEDMRLPPYGLCERGDPGSSPAGPREASPLVVISQPAPISPHLSGPAEDSSSDSEAEDEKSVLMAAVQSGGEEANLLLPELGSAFYDMASGFTVGTLSETSTGGPATPTWKECPICKERFPAESDKDALEDHMDGHFFFSTQDPFTFE",0.2225
9,"ZBTB6 (protein, UniProt Q15916 1-424, looked up) Zinc finger and BTB …: MAAESDVLHFQFEQQGDVVLQKMNLLRQQNLFCDVSIYINDTEFQGHKVILAACSTFMRDQFLLTQSKHVRITILQSAEVGRKLLLSCYTGALEVKRKELLKYLTAASYLQMVHIVEKCTEALSKYLEIDLSMKNNNQHTDLCQSSDPDVKNEDENSDKDCEIIEISEDSPVNIDFHVKEEESNALQSTVESLTSERKEMKSPELSTVDIGFKDNEICILHVESISTAGVENGQFSQPCTSSKASMYFSETQHSLINSTVESRVAEVPGNQDQGLFCENTEGSYGTVSEIQNLEEGYSLRHQCPRCPRGFLHVENYLRHLKMHKLFLCLQCGKTFTQKKNLNRHIRGHMGIRPFQCTVCLKTFTAKSTLQDHLNIHSGDRPYKCHCCDMDFKHKSALKKHLTSVHGRSSGEKLSRPDLKRQSLL",-0.2886
